Experimental data from patent US20240116985A1, “STAPLED PEPTIDES AND METHODS THEREOF” (priority 2020, published 2024).
Starred links: 1 amine or outer side, 2 acyl side, 3 side chain; linkers in the order of their positions; H or OH if unused. Positions of bridges follow the written chain, without caps; N, C: chain ends. Non-standard residues stand in square brackets, D forms with d. Primed or numbered codes have the meaning given here. PyrS2″ = (S)-3-amino-1-((pent-4-en-1-yloxy)carbonyl)pyrrolidine-3-carboxylic acid (stapling residue), C=CCCCOC(=O)N1CC[C@@](N[*:1])(C(=O)[*:2])C1; B5(18) = 2,2-bis(4-pentenyl)glycine (2-amino-2-(pent-4-en-1-yl)hept-6-enoic acid), stitching residue, C=CCCCC(CCCC=C)(N[*:1])C(=O)[*:2]; B5(5) = 2,2-bis(4-pentenyl)glycine, 2-amino-2-(pent-4-en-1-yl)hept-6-enoic acid (stitching residue), C=CCCCC(CCCC=C)(N[*:1])C(=O)[*:2]; TfeGA = (S)-2-amino-3-((carboxymethyl)(2,2,2-trifluoroethyl)amino)propanoic acid, O=C([C@H](CN(CC(=O)[*:3])CC(F)(F)F)N[*:1])[*:2]; B5(3) = 2,2-bis(4-pentenyl)glycine (stitching residue), C=CCCCC(CCCC=C)(N[*:1])C(=O)[*:2]; B5 = 2-amino-2-(pent-4-en-1-yl)hept-6-enoic acid, C=CCCCC(CCCC=C)(N[*:1])C(=O)[*:2]; Bip = N[C@@H](Cc1ccc(-c2ccccc2)cc1)C(=O)O; Dip = N[C@H](C(=O)O)C(c1ccccc1)c1ccccc1; Phe(2-Cl) = N[C@@H](Cc1ccccc1Cl)C(=O)O; Bta = N[C@@H](Cc1csc2ccccc12)C(=O)O; αAllylPro = C=CC[C@@]1(C(=O)O)CCCN1; tBuAla = CC(C)(C)C[C@H](N)C(=O)O; 3Thi = N[C@@H](Cc1ccsc1)C(=O)O; Cha = N[C@@H](CC1CCCCC1)C(=O)O; S8 = C=CCCCCCC[C@](C)(N)C(=O)O; Phg = N[C@H](C(=O)O)c1ccccc1

Biological target: Bcat-Halo (UniProt P35222)
Assay: NanoBRET Abs IC50, Bcat-Halo/TCF4-Luc in HEK293 cells

Chain of Bcat-Halo (P35222 whole entry): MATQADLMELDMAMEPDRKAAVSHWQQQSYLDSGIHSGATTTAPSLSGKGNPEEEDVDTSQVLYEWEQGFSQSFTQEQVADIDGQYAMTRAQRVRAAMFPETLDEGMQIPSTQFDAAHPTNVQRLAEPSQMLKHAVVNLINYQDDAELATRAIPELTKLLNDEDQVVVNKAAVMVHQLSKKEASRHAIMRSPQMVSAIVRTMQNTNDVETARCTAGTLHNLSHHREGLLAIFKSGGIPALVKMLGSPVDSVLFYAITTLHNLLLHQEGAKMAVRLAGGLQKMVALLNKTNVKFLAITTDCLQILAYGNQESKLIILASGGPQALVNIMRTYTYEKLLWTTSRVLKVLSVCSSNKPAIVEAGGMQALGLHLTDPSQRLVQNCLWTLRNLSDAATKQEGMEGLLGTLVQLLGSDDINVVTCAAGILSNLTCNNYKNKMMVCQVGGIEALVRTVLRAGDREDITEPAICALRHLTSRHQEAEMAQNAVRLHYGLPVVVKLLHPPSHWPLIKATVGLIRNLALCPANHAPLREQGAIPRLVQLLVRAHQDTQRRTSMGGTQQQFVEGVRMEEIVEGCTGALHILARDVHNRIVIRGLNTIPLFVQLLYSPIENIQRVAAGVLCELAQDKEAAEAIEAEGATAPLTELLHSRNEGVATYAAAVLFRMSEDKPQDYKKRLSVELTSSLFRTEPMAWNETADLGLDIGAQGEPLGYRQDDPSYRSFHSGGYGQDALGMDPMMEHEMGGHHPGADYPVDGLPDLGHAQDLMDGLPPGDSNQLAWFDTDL

IC50	Binder
8900 nM	Ac-[αAllylPro]D[tBuAla][B5(18)]DDAAFS[PyrS2″][Phe(2-Cl)][Bta]Q-NH2 (staple 1-4, 4-11) [I-1017]
13300 nM	Ac-[αAllylPro]D[tBuAla][B5(18)]D[TfeGA]IAFN[PyrS2″][Phe(2-Cl)][Bta]Q-NH2 (staple 1-4, 4-11) [I-1010]
21400 nM	Ac-[αAllylPro]D[tBuAla][B5(18)]DNAAFT[PyrS2″][Phe(2-Cl)][Bta]S-NH2 (staple 1-4, 4-11) [I-1016]
20800 nM	Ac-[αAllylPro]D[tBuAla][B5(18)]D[TfeGA]KAFN[PyrS2″][Phe(2-Cl)][Bta]Q-NH2 (staple 1-4, 4-11) [I-1011]

Biological target: full-length beta-Catenin (Uniprot ID P35222) (Homo sapiens (Human)) (UniProt P35222)
Assay: fluorescence polarization competition; displaces 5FAM-TCF4(10-53) from full-length beta-catenin
Target sequence in this assay (P35222 2-781 limits assumed): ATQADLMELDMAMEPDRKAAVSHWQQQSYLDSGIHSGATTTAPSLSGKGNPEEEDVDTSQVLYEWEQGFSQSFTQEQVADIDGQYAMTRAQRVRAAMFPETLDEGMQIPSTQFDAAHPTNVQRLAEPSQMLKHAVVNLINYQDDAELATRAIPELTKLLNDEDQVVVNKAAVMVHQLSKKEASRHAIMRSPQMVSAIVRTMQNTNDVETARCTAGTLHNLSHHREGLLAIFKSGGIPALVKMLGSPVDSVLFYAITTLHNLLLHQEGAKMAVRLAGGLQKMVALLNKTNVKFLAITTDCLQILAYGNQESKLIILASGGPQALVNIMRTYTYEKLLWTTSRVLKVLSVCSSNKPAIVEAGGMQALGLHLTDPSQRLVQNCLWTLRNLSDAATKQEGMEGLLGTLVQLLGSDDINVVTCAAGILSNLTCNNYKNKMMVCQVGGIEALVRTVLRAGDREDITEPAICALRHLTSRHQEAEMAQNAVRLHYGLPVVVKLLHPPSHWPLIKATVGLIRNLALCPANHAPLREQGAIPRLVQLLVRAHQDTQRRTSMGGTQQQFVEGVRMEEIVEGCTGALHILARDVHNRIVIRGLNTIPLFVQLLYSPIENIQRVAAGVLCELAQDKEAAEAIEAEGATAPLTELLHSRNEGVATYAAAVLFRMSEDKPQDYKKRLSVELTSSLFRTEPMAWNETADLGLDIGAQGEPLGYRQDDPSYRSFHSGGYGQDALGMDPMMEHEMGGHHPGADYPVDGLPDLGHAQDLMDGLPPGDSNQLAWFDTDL

EC50	Binder
5 nM	Ac-[αAllylPro]D[tBuAla][B5(18)]DDAAFS[PyrS2″][Phe(2-Cl)][Bta]Q-NH2 (staple 1-4, 4-11) [I-1017]
8 nM	Ac-[αAllylPro]D[tBuAla][B5(18)]D[TfeGA]IAFN[PyrS2″][Phe(2-Cl)][Bta]Q-NH2 (staple 1-4, 4-11) [I-1010]
8 nM	Ac-[αAllylPro]D[tBuAla][B5(18)]DNAAFT[PyrS2″][Phe(2-Cl)][Bta]S-NH2 (staple 1-4, 4-11) [I-1016]
5 nM	Ac-[αAllylPro]D[tBuAla][B5(18)]D[TfeGA]KAFN[PyrS2″][Phe(2-Cl)][Bta]Q-NH2 (staple 1-4, 4-11) [I-1011]

Biological target: full-length beta-Catenin (Uniprot ID P35222) (Homo sapiens (Human)) (UniProt P35222)
Assay: fluorescence polarization competition; 10 nM full-length beta-catenin + 10 nM 5FAM-TCF4(10-53) probe
Target sequence in this assay (P35222 whole entry, the tested form may be a part, one chain of several): as the sequence (P35222 whole entry) above

IC50	Binder
5 nM	Ac-[αAllylPro]D[tBuAla][B5(18)]DDAAFS[PyrS2″][Phe(2-Cl)][Bta]Q-NH2 (staple 1-4, 4-11) [I-1017]
8 nM	Ac-[αAllylPro]D[tBuAla][B5(18)]D[TfeGA]IAFN[PyrS2″][Phe(2-Cl)][Bta]Q-NH2 (staple 1-4, 4-11) [I-1010]
8 nM	Ac-[αAllylPro]D[tBuAla][B5(18)]DNAAFT[PyrS2″][Phe(2-Cl)][Bta]S-NH2 (staple 1-4, 4-11) [I-1016]
5 nM	Ac-[αAllylPro]D[tBuAla][B5(18)]D[TfeGA]KAFN[PyrS2″][Phe(2-Cl)][Bta]Q-NH2 (staple 1-4, 4-11) [I-1011]

Biological target: full-length beta-Catenin (Uniprot ID P35222) (Homo sapiens (Human)) (UniProt P35222)
Assay: fluorescence polarization competition; full-length beta-catenin + 5FAM-TCF4(10-53) probe; peptide titrated
Target sequence in this assay (P35222 2-781 limits assumed): as the sequence (P35222 2-781 limits assumed) above

EC50	Binder
58 nM	Ac-[αAllylPro]D[tBuAla][B5(3)]D[TfeGA]AAFN[S8][3Thi][Bta]H-NH2 (staple 1-4, 4-11) [I-705]
54 nM	Ac-[αAllylPro]D[Cha][B5(3)]D[TfeGA]AAFN[S8][3Thi][Bta]H-NH2 (staple 1-4, 4-11) [I-709]

Biological target: full-length beta-Catenin (Uniprot ID P35222) (Homo sapiens (Human)) (UniProt P35222)
Assay: fluorescence polarization competition; peptide titrated against full-length beta-catenin + 5FAM-TCF4(10-53)
Target sequence in this assay (P35222 whole entry, the tested form may be a part, one chain of several): as the sequence (P35222 whole entry) above

Binder	IC50
Ac-[αAllylPro]DI[B5(3)]DEAAFN[S8]F[Bta]-NH2 (staple 1-4, 4-11) [I-714]	131 nM
Ac-[αAllylPro]DI[B5]DEAA[Bip]Q[S8]F[Bta]Q-NH2 (staple 1-4, 4-11) [I-723]	3830 nM
Ac-[αAllylPro]D[tBuAla][B5(3)]DEAAFN[S8]F[Bta]-NH2 (staple 1-4, 4-11) [I-712]	92 nM
Ac-[αAllylPro]DL[B5]DEAAFN[S8][3Thi][Bta]-NH2 (staple 1-4, 4-11) [I-717]	39 nM
Ac-[αAllylPro]D[tBuAla][B5(3)]D[TfeGA]AAFN[S8][3Thi][Bta]H-NH2 (staple 1-4, 4-11) [I-705]	58 nM
Ac-[αAllylPro]DI[B5(3)]DEAAFN[S8]F[Bta]-NH2 (staple 1-4, 4-11) [I-715]	60.5 nM
Ac-[αAllylPro]D[Cha][B5(3)]D[TfeGA]AAFN[S8][3Thi][Bta]H-NH2 (staple 1-4, 4-11) [I-709]	54 nM

Now from value to binder:

IC50	Binder
91 nM	Ac-[αAllylPro]DL[B5]DEAAFN[S8][3Thi][Bta]-NH2 (staple 1-4, 4-11) [I-716]
38 nM	Ac-[αAllylPro]D[tBuAla][B5]DEAAFN[S8][3Thi][Bta]-NH2 (staple 1-4, 4-11) [I-719]
5000 nM	Ac-[αAllylPro]DI[B5]DEAA[Phg]Q[S8]F[Bta]Q-NH2 (staple 1-4, 4-11) [I-726]
5000 nM	Ac-[αAllylPro]DI[B5]DEAA[Dip]Q[S8]F[Bta]Q-NH2 (staple 1-4, 4-11) [I-725]
75 nM	Ac-[αAllylPro]DI[B5]DEAAFN[S8][3Thi][Bta]-NH2 (staple 1-4, 4-11) [I-720]
1130 nM	Ac-[αAllylPro]DI[B5]DEAA[Cha]Q[S8]F[Bta]Q-NH2 (staple 1-4, 4-11) [I-722]
46 nM	Ac-[αAllylPro]DI[B5]DEAAFN[S8][3Thi][Bta]-NH2 (staple 1-4, 4-11) [I-721]

Biological target: full-length beta-Catenin (Uniprot ID P35222) (Homo sapiens (Human)) (UniProt P35222)
Assay: fluorescence polarization competition; full-length beta-catenin with 5FAM-labeled TCF4 residues 10-53 probe as competitor
Target sequence in this assay (P35222 whole entry, the tested form may be a part, one chain of several): as the sequence (P35222 whole entry) above

Binder	EC50
Ac-[αAllylPro]DI[B5(3)]DEAAFN[S8]F[Bta]-NH2 (staple 1-4, 4-11) [I-714]	131 nM
Ac-[αAllylPro]DI[B5]DEAA[Bip]Q[S8]F[Bta]Q-NH2 (staple 1-4, 4-11) [I-723]	3830 nM
Ac-[αAllylPro]D[tBuAla][B5(3)]DEAAFN[S8]F[Bta]-NH2 (staple 1-4, 4-11) [I-712]	92 nM
Ac-[αAllylPro]DL[B5]DEAAFN[S8][3Thi][Bta]-NH2 (staple 1-4, 4-11) [I-717]	39 nM
Ac-[αAllylPro]DI[B5(3)]DEAAFN[S8]F[Bta]-NH2 (staple 1-4, 4-11) [I-715]	60.5 nM

Results, then the binder that gave them:

EC50	Binder
91 nM	Ac-[αAllylPro]DL[B5]DEAAFN[S8][3Thi][Bta]-NH2 (staple 1-4, 4-11) [I-716]
38 nM	Ac-[αAllylPro]D[tBuAla][B5]DEAAFN[S8][3Thi][Bta]-NH2 (staple 1-4, 4-11) [I-719]
5000 nM	Ac-[αAllylPro]DI[B5]DEAA[Phg]Q[S8]F[Bta]Q-NH2 (staple 1-4, 4-11) [I-726]
5000 nM	Ac-[αAllylPro]DI[B5]DEAA[Dip]Q[S8]F[Bta]Q-NH2 (staple 1-4, 4-11) [I-725]
75 nM	Ac-[αAllylPro]DI[B5]DEAAFN[S8][3Thi][Bta]-NH2 (staple 1-4, 4-11) [I-720]
1130 nM	Ac-[αAllylPro]DI[B5]DEAA[Cha]Q[S8]F[Bta]Q-NH2 (staple 1-4, 4-11) [I-722]
46 nM	Ac-[αAllylPro]DI[B5]DEAAFN[S8][3Thi][Bta]-NH2 (staple 1-4, 4-11) [I-721]
